{
  "source": "patent US20220235120A1",
  "about": "(UNIVERSITY OF MARYLAND BALTIMORE, published 2022)",
  "binders": {"B1": {"name": "FZ003 binding agent (tetra-specific, octameric VHH-IgG1 with CDR-grafted humanized VHHs) (bispecific antibody)", "light": "EVQLLESGGGLVQPGGSLRLSCAASGFTFSDYVMTWVRQAPGKGPEWIATINTDGSTMRDDSTKGRFTISRDNSKNTLYLQMNSLRAEDTAVYYCARGRVISASAIRGAVRGQGTLVTVSSGGGGSGGGGSGGGGSEVQLLESGGGLVQPGGSLRLSCAASGSIAGFETVTWSRQAPGKSLQWVASMTKTNNEIYSDSVKGRFTISRDNSKNTVYLQMNSLRAEDTAVYYCKGPELRGQGTLVTVSSRTVAAPSVFIFPPSDEQLKSGTASVVCLLNNFYPREAKVQWKVDNALQSGNSQESVTEQDSKDSTYSLSSTLTLSKADYEKHKVYACEVTHQGLSSPVTKSFNRGEC", "heavy": "not shown"}},
  "key": {"[1]": {"target": "Clostridium difficile toxin A (TcdA) (Clostridium difficile, UniProt P16154 1-2710)", "sequence (P16154 whole entry)": "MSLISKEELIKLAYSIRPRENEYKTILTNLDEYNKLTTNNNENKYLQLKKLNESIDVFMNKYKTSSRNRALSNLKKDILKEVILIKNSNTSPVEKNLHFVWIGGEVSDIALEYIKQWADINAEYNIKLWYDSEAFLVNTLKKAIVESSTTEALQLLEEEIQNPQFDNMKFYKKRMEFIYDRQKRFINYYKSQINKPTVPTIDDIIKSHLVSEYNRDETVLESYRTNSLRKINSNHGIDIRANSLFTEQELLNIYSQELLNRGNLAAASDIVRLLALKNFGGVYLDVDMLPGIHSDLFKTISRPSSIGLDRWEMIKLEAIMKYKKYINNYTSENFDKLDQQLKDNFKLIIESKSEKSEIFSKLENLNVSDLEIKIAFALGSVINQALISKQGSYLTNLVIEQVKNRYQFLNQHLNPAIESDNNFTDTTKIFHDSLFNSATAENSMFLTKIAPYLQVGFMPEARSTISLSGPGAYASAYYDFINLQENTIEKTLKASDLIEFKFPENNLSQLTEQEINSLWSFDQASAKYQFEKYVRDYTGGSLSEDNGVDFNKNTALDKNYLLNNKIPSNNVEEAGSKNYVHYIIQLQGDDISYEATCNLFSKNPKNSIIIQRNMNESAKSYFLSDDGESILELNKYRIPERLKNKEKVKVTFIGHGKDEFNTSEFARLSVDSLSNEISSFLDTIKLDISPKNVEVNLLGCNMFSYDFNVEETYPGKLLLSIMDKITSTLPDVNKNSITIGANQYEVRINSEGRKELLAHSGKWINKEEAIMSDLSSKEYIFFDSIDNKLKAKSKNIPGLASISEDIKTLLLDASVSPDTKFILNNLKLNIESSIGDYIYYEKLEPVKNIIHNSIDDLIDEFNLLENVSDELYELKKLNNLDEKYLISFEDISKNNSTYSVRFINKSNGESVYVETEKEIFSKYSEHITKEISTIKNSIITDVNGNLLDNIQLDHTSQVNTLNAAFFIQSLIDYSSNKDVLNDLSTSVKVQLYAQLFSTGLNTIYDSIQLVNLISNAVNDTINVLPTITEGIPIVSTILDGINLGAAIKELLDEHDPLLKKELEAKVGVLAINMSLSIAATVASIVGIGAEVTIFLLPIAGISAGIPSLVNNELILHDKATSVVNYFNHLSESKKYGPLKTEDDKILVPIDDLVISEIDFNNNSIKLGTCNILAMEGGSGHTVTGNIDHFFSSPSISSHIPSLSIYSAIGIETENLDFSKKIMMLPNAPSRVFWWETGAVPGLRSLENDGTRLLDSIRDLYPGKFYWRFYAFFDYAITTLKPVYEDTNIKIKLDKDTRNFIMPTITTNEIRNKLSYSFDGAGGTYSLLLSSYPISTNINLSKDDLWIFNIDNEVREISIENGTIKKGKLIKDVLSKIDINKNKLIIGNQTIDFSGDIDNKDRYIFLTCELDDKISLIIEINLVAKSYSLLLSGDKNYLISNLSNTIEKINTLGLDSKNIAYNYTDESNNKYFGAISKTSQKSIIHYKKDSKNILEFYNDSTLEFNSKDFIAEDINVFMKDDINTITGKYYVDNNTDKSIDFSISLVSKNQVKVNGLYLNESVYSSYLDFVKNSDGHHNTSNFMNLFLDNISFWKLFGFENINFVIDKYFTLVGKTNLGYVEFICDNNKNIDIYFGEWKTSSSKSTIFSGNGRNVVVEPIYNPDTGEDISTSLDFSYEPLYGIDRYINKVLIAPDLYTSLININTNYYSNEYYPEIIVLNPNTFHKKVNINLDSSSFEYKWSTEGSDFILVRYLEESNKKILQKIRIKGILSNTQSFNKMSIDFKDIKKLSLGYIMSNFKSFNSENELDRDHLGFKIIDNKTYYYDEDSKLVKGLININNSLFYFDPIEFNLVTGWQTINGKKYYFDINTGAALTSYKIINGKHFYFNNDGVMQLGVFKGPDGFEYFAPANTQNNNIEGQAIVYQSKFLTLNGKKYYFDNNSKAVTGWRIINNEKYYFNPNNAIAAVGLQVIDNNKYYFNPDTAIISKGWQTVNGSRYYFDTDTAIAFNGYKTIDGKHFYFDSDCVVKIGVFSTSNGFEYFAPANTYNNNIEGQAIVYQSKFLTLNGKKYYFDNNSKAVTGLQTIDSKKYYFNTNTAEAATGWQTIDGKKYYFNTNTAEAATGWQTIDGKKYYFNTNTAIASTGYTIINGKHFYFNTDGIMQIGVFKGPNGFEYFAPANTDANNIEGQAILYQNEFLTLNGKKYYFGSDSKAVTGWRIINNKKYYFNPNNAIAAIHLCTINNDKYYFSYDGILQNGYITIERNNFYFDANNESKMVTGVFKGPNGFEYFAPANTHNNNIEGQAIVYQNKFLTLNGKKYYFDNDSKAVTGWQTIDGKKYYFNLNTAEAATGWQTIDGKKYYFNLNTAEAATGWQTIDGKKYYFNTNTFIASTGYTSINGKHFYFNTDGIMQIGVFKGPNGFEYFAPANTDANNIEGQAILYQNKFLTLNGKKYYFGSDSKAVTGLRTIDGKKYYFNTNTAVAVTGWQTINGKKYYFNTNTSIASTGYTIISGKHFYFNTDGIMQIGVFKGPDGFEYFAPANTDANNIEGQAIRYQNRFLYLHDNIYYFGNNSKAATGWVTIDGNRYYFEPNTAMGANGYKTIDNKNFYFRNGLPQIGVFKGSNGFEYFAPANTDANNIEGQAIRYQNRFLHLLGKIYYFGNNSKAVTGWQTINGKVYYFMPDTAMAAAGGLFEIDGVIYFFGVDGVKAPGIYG", "experiment": "cell-based or functional assay"}, "[2]": {"target": "Clostridium difficile toxin B (TcdB) (Clostridium difficile, UniProt P18177 2-2366)", "sequence (P18177 2-2366 limits assumed)": "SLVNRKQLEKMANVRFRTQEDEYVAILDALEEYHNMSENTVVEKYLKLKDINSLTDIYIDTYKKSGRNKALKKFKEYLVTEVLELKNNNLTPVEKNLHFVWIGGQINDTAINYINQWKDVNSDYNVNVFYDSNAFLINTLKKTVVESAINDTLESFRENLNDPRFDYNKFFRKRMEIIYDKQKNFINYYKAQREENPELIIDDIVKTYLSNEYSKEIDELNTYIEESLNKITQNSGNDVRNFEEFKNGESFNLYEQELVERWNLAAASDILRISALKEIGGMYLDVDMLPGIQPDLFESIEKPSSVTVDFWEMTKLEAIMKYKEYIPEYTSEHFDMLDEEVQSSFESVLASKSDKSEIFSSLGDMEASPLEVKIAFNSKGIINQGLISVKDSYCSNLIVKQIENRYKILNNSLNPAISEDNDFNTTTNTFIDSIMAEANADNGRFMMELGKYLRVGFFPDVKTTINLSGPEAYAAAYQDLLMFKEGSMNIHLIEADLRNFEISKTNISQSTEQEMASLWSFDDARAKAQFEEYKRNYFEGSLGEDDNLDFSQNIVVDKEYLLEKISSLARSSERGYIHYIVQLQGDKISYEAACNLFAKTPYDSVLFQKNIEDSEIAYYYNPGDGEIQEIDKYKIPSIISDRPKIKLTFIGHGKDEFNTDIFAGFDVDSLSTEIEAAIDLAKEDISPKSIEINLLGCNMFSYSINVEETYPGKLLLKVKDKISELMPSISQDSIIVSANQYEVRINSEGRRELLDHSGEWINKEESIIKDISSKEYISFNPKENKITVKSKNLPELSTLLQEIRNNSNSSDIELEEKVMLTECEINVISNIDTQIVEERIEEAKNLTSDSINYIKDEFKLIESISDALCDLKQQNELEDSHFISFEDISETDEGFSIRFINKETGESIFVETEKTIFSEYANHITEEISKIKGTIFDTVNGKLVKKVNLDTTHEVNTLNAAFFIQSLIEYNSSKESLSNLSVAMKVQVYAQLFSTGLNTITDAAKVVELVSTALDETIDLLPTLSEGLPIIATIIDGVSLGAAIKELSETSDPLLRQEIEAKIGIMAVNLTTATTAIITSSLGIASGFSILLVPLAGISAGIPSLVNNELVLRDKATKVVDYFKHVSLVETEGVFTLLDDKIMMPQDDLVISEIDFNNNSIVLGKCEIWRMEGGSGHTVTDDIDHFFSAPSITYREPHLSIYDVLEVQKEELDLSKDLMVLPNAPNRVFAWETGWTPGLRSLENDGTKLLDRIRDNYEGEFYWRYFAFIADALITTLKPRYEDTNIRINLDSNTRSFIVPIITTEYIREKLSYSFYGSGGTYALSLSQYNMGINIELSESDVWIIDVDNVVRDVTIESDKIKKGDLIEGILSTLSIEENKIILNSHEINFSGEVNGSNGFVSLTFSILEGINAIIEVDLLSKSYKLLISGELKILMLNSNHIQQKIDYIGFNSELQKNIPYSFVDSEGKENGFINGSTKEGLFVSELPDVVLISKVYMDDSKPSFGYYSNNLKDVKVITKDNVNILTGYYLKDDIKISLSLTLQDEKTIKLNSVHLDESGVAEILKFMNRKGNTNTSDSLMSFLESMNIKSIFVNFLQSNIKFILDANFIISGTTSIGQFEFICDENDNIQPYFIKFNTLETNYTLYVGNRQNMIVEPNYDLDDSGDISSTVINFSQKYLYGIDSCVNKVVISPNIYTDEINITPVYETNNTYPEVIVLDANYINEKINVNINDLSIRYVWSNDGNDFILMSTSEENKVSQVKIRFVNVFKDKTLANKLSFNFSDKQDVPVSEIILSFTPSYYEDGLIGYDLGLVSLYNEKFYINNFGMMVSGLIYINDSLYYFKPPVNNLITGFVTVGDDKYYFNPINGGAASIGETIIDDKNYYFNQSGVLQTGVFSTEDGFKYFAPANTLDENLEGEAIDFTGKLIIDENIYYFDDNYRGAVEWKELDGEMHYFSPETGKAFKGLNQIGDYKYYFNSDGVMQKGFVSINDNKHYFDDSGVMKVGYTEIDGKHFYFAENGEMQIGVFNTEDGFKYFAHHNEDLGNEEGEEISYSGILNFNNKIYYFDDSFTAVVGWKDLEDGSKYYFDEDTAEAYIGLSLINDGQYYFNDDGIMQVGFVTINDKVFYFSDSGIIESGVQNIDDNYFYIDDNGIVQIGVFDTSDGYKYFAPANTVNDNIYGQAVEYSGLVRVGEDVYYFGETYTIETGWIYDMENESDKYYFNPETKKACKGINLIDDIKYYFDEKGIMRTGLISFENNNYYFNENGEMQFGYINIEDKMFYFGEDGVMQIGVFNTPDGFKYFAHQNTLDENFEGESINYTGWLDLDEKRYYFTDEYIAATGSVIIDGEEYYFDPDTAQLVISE", "experiment": "cell-based or functional assay"}},
  "data": [
    {"binder": "B1", "values": [
      {"measurement": "survival in mouse systemic toxin challenge (toxins pre-incubated with antibody)", "setting": "[1]", "value": "> 1000 fold more potent than the Merck antibody"},
      {"measurement": "survival in mouse systemic toxin challenge (toxins pre-incubated with antibody)", "setting": "[2]", "value": "> 1000 fold more potent than the Merck antibody"}
    ]}
  ]
}
